Assay [1] concerns the target erbB2 peptide (Homo sapiens) (UniProt P04626). To be noted: cited from earlier work.
For assay [2], the target named is hGrb7-RA-PH domains (residues 103-341), hexa-histidine fusion (human, UniProt Q14451 103-341). The experiment in a line: ITC.
Chain of hGrb7-RA-PH domains (residues 103-341), hexa-histidine fusion (Q14451 103-341): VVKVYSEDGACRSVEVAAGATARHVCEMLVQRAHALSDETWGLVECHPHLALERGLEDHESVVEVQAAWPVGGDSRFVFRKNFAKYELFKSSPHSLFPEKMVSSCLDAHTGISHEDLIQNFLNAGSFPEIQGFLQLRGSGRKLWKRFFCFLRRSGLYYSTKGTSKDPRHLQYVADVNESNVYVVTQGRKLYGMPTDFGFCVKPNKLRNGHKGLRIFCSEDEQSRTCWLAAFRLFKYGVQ

As to Grb7 SH2 (from UniProt Q14451), the dissociation constant Kd in assay [1] was 2280 nM.

B1: human Grb7-SH2 domain (domain or fragment, UniProt Q14451 431-527, looked up)
chain: WFHGRISREESQRLIGQQGLVDGLFLVRESQRNPQGFVLSLCHLQKVKHYLILPSEEEGRLYFSMDDGQTRFTDLLQLVEFHQLNRGILPCLLRHCC
Take B1: the equilibrium dissociation constant (Kd) in assay [2] came to 2800 nM.
